The values below come from article PMC7102968, “The complex formed between a synthetic RNA aptamer and the transcription repressor TetR is a structural and functional twin of the operator DNA–TetR regulator complex”.

The target of data set [1] is T1, TetR(BD') (UniProt P04483 1-187+P0ACT4:188-208, C68S;C88N;C121T;C144S;internal_change). As to the kind of experiment: ITC; n=1.17; ITC: 20 mM potassium phosphate pH 7.4, 50 mM NaCl, 25 C; EMSA: 50 mM Tris-HCl pH 8.0, 10 mM MgCl2, 25 mM NaCl, 25 ug/ml yeast tRNA, room temperature; SEC buffer not given (preparative complex: 20 mM Tris-HCl pH 8.0, 150 mM NaCl, 5 mM MgCl2). Particulars: protein: recombinant; chain copies: 2; blunt.

Another data set concerns the target TetR-Y42A (UniProt P04483 1-187+P0ACT4:188-208, Y42A;C68S;C88N;C121T;C144S;internal_change). The experiment in a line: SEC; ITC: 20 mM potassium phosphate pH 7.4, 50 mM NaCl, 25 C; EMSA: 50 mM Tris-HCl pH 8.0, 10 mM MgCl2, 25 mM NaCl, 25 ug/ml yeast tRNA, room temperature; SEC buffer not given (preparative complex: 20 mM Tris-HCl pH 8.0, 150 mM NaCl, 5 mM MgCl2). Particulars: protein: recombinant; chain copies: 2; blunt.

Data set [2] addresses T2, TetR-R28A (UniProt P04483 1-187+P0ACT4:188-208, R28A;C68S;C88N;C121T;C144S;internal_change). Described as above. Particulars: protein: recombinant; chain copies: 2; blunt.
In data set [3] the target is T3, TetR-Q38A (UniProt P04483 1-187+P0ACT4:188-208, Q38A;C68S;C88N;C121T;C144S;internal_change). Described as above. Particulars: protein: recombinant; chain copies: 2; blunt.
For data set [4], the target named is T1, TetR(BD'). The experiment in a line: ITC; n=0.96 (TetR dimer per aptamer); ITC: 20 mM potassium phosphate pH 7.4, 50 mM NaCl, 25 C; EMSA: 50 mM Tris-HCl pH 8.0, 10 mM MgCl2, 25 mM NaCl, 25 ug/ml yeast tRNA, room temperature; SEC buffer not given (preparative complex: 20 mM Tris-HCl pH 8.0, 150 mM NaCl, 5 mM MgCl2). Particulars: protein: recombinant, chain copies: 2, label: 5'-32P in EMSA, none in ITC, crystal, hairpin, L-shaped, 43 nt, stems P1 and P2.

The target in data set [5] is T3, TetR-Q38A. As to the kind of experiment: EMSA; 10 mM Mg2+, 25 ug/ml yeast tRNA; exact Kd not determinable, weak binding detected; ITC: 20 mM potassium phosphate pH 7.4, 50 mM NaCl, 25 C; EMSA: 50 mM Tris-HCl pH 8.0, 10 mM MgCl2, 25 mM NaCl, 25 ug/ml yeast tRNA, room temperature; SEC buffer not given (preparative complex: 20 mM Tris-HCl pH 8.0, 150 mM NaCl, 5 mM MgCl2). Particulars: protein: recombinant, chain copies: 2, label: 5'-32P in EMSA, none in ITC, crystal, hairpin, L-shaped, 43 nt, stems P1 and P2.

In data set [6] the target is T1, TetR(BD'). As to the kind of experiment: EMSA; 10 mM Mg2+, 25 ug/ml yeast tRNA; ITC: 20 mM potassium phosphate pH 7.4, 50 mM NaCl, 25 C; EMSA: 50 mM Tris-HCl pH 8.0, 10 mM MgCl2, 25 mM NaCl, 25 ug/ml yeast tRNA, room temperature; SEC buffer not given (preparative complex: 20 mM Tris-HCl pH 8.0, 150 mM NaCl, 5 mM MgCl2). Particulars: protein: recombinant, chain copies: 2, label: 5'-32P in EMSA, none in ITC, crystal, hairpin, L-shaped, 43 nt, stems P1 and P2.

Data set [7] has as its target T3, TetR-Q38A. As to the kind of experiment: ITC; n=1.10; ITC: 20 mM potassium phosphate pH 7.4, 50 mM NaCl, 25 C; EMSA: 50 mM Tris-HCl pH 8.0, 10 mM MgCl2, 25 mM NaCl, 25 ug/ml yeast tRNA, room temperature; SEC buffer not given (preparative complex: 20 mM Tris-HCl pH 8.0, 150 mM NaCl, 5 mM MgCl2). Particulars: protein: recombinant, chain copies: 2, label: 5'-32P in EMSA, none in ITC, crystal, hairpin, L-shaped, 43 nt, stems P1 and P2.

Data set [8] addresses T2, TetR-R28A. As to the kind of experiment: EMSA; 10 mM Mg2+, up to 1000 nM TetR; ITC: 20 mM potassium phosphate pH 7.4, 50 mM NaCl, 25 C; EMSA: 50 mM Tris-HCl pH 8.0, 10 mM MgCl2, 25 mM NaCl, 25 ug/ml yeast tRNA, room temperature; SEC buffer not given (preparative complex: 20 mM Tris-HCl pH 8.0, 150 mM NaCl, 5 mM MgCl2). Particulars: protein: recombinant, chain copies: 2, label: 5'-32P in EMSA, none in ITC, crystal, hairpin, L-shaped, 43 nt, stems P1 and P2.

In data set [9] the target is T1, TetR(BD'). The experiment in a line: X-ray crystallography; 2.9 A; ITC: 20 mM potassium phosphate pH 7.4, 50 mM NaCl, 25 C; EMSA: 50 mM Tris-HCl pH 8.0, 10 mM MgCl2, 25 mM NaCl, 25 ug/ml yeast tRNA, room temperature; SEC buffer not given (preparative complex: 20 mM Tris-HCl pH 8.0, 150 mM NaCl, 5 mM MgCl2). Particulars: protein: recombinant; chain copies: 2; hairpin, L-shaped, 39 nt, UUCG loop.

B1: tetO operator 25 bp (dsDNA)
DNA 1: CGCATTCTATCATTGATAGGATGCG
DNA 2: CGCATCCTATCAATGATAGAATGCG
For B1, the equilibrium dissociation constant (Kd) with TetR(BD') [1] came to 51.1 nM. The binding result in the data set with TetR-Y42A is listed as “no binding”; in the data set with TetR-R28A [2], “no binding”; in the data set with TetR-Q38A [3] it was “binds”.
As for GGCCGGAGAAUGUUAUGGCGCGAAAGCGCAGAGAAAACCGGUC (structured_RNA) [TetR-binding aptamer K1], the Kd with TetR(BD') [4] was 5.6 nM; with TetR-Q38A [5], > 500 nM; in the data set with TetR(BD') [6] it was 80 nM; with TetR-Q38A [7] it was 26.2 nM. Besides, in the data set with TetR-R28A [8], the binding result is reported as “no binding”.
With GGCGGAGAAUGUUAUGGCCUUCGGGCAGAGAAAACCGUC (structured_RNA) [TetR-binding aptamer K2], the binding result in the data set with TetR(BD') [9] is listed as “binds”.
